To fix the notation:
B1: 78F, 72A (protein, listed as Rattus norvegicus)
chain: AFDGTWKVDRNENYEKFMEKMGINVVKRKLGAHDNLKLTITQEGNKFTVKESSNFRNIDVVFELGVDFAYSAADGTEFTGTWTMEGNKLVGKFKRVDNGKELIAVREISGNELIQTYTYEGVEAKRIFKKE
modifications: PEPTIDE (1)...(131) wild-type rat intestinal fatty acid binding protein
B2: 31V, 72A (protein, listed as Rattus norvegicus)
chain: B1 chain with G31V, F78L
modifications: PEPTIDE (1)...(131) wild-type rat intestinal fatty acid binding protein
B3: 36V, 72A (protein, listed as Rattus norvegicus)
chain: B1 chain with L36V, F78L
modifications: PEPTIDE (1)...(131) wild-type rat intestinal fatty acid binding protein
B4: 38T, 72A (protein, listed as Rattus norvegicus)
chain: B1 chain with L38T, F78L
modifications: PEPTIDE (1)...(131) wild-type rat intestinal fatty acid binding protein
B5: 14M 72M 117A (protein, listed as Rattus norvegicus)
chain: B1 chain with Y14M, A72M, F78L, Y117A
modifications: PEPTIDE (1)...(131) wild-type rat intestinal fatty acid binding protein
B6: 104N, 72A (protein, listed as Rattus norvegicus)
chain: B1 chain with F78L, A104N
modifications: PEPTIDE (1)...(131) wild-type rat intestinal fatty acid binding protein
B7: 31I, 72A (protein, listed as Rattus norvegicus)
chain: B1 chain with G31I, F78L
modifications: PEPTIDE (1)...(131) wild-type rat intestinal fatty acid binding protein
B8: 31Q, 72A (protein, listed as Rattus norvegicus)
chain: B1 chain with G31Q, F78L
modifications: PEPTIDE (1)...(131) wild-type rat intestinal fatty acid binding protein
B9: 38M, 72A (protein, listed as Rattus norvegicus)
chain: B1 chain with L38M, F78L
modifications: PEPTIDE (1)...(131) wild-type rat intestinal fatty acid binding protein
B10: 23W, 72A (protein, listed as Rattus norvegicus)
chain: B1 chain with I23W, F78L
modifications: PEPTIDE (1)...(131) wild-type rat intestinal fatty acid binding protein
B11: 31T, 72A (protein, listed as Rattus norvegicus)
chain: B1 chain with G31T, F78L
modifications: PEPTIDE (1)...(131) wild-type rat intestinal fatty acid binding protein
B12: 38W, 72A (protein, listed as Rattus norvegicus)
chain: B1 chain with L38W, F78L
modifications: PEPTIDE (1)...(131) wild-type rat intestinal fatty acid binding protein
B13: 31R, 72A (protein, listed as Rattus norvegicus)
chain: B1 chain with G31R, F78L
modifications: PEPTIDE (1)...(131) wild-type rat intestinal fatty acid binding protein
B14: 31E, 72A (protein, listed as Rattus norvegicus)
chain: B1 chain with G31E, F78L
modifications: PEPTIDE (1)...(131) wild-type rat intestinal fatty acid binding protein
B15: 14W 72M 117A (protein, listed as Rattus norvegicus)
chain: B1 chain with Y14W, A72M, F78L, Y117A
modifications: PEPTIDE (1)...(131) wild-type rat intestinal fatty acid binding protein
B16: 38Q, 72A (protein, listed as Rattus norvegicus)
chain: B1 chain with L38Q, F78L
modifications: PEPTIDE (1)...(131) wild-type rat intestinal fatty acid binding protein
B17: 36I, 72A (protein, listed as Rattus norvegicus)
chain: B1 chain with L36I, F78L
modifications: PEPTIDE (1)...(131) wild-type rat intestinal fatty acid binding protein
B18: 62W, 72A (protein, listed as Rattus norvegicus)
chain: B1 chain with F62W, F78L
modifications: PEPTIDE (1)...(131) wild-type rat intestinal fatty acid binding protein
B19: 62P, 72A (protein, listed as Rattus norvegicus)
chain: B1 chain with F62P, F78L
modifications: PEPTIDE (1)...(131) wild-type rat intestinal fatty acid binding protein
B20: 38S, 72A (protein, listed as Rattus norvegicus)
chain: B1 chain with L38S, F78L
modifications: PEPTIDE (1)...(131) wild-type rat intestinal fatty acid binding protein

Numbering of substitutions follows the chain as printed.

A short description of the first assay: Probe fluorescence ratio response to arachidonic acid relative to ADIFAB2. The assay is classed as binding. The note with it: arachidonic acid; response relative to ADIFAB2. In short, it runs like this: (§1)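 Fluorescently labeled rat intestinal FABP variants were read at two emission wavelengths, near the unbound maximum (about 420 to 480 nm) and the FFA-bound maximum (about 495 to 580 nm). R = Fλ1/Fλ2 after subtracting probe-free intensity; ΔR = R+agent − R0, normalized to ADIFAB2 (rI-FABP-L72A).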
B1: the “DR/DR AA” value was found to be 2.001.

Consider B2, for which the “DR/DR AA” value came to 0.395.

Turning to B3, the “DR/DR AA” value worked out at 1.026.

For the molecule B4, the “DR/DR AA” value came to 1.598.

For the molecule B5, the “DR/DR AA” value was 1.649.

Regarding B6, the “DR/DR AA” value came to 1.018.

With B7, the “DR/DR AA” value amounted to 0.303.

In the case of B8, the “DR/DR AA” value is listed as 1.024.

Regarding B9, the “DR/DR AA” value came to 1.850.

As for B10, the “DR/DR AA” value is reported as 0.618.

In the case of B11, the “DR/DR AA” value worked out at 0.143.

In the case of B12, the “DR/DR AA” value was 1.350.

Turning to B13, the “DR/DR AA” value turned out to be 0.250.

With B14, the “DR/DR AA” value turned out to be 0.238.

On to B15, for which the “DR/DR AA” value came to 0.945.

As to B16, the “DR/DR AA” value amounted to 1.976.

As to B17, the “DR/DR AA” value amounted to 0.812.

In the case of B18, the “DR/DR AA” value came to 2.206.

On to B19, for which the “DR/DR AA” value is 1.548.

Regarding B20, the “DR/DR AA” value is 1.175.

A further assay is described as follows: Probe fluorescence ratio response to linolenic acid relative to ADIFAB2. The class given is binding. Conditions: response relative to ADIFAB2. In short, it runs like this:
as §1
Regarding B1, the “DR/DR LNA” value was found to be 2.033.

As for B2, the “DR/DR LNA” value is listed as 0.776.

As to B3, the “DR/DR LNA” value is on record as 1.082.

On to B4, for which the “DR/DR LNA” value came to 1.639.

Consider B5, for which the “DR/DR LNA” value turned out to be 2.031.

For B6, the “DR/DR LNA” value is on record as 0.391.

Turning to B7, the “DR/DR LNA” value is on record as 0.413.

On to B8, for which the “DR/DR LNA” value turned out to be 1.494.

Regarding B9, the “DR/DR LNA” value is on record as 1.697.

As for B10, the “DR/DR LNA” value is reported as 0.956.

For the molecule B11, the “DR/DR LNA” value amounted to 0.510.

With B12, the “DR/DR LNA” value is 1.336.

In the case of B13, the “DR/DR LNA” value stood at 0.437.

In the case of B14, the “DR/DR LNA” value was 0.522.

With B15, the “DR/DR LNA” value came out at 1.286.

B16: the “DR/DR LNA” value is reported as 1.986.

With B17, the “DR/DR LNA” value is 1.004.

B18: the “DR/DR LNA” value was 2.120.

In the case of B19, the “DR/DR LNA” value was 1.581.

B20: the “DR/DR LNA” value came out at 1.295.

The next assay is described as follows: Probe fluorescence ratio response to linoleic acid relative to ADIFAB2. The class given is binding. Conditions: response relative to ADIFAB2. In short, it runs like this: as §1
In the case of B1, the “DR/DR LA” value was found to be 1.955.

As to B2, the “DR/DR LA” value came out at 0.384.

Regarding B3, the “DR/DR LA” value was determined as 1.062.

B4: the “DR/DR LA” value turned out to be 1.577.

For B5, the “DR/DR LA” value is 1.956.

As to B6, the “DR/DR LA” value is reported as 0.385.

As for B7, the “DR/DR LA” value was 0.168.

On to B8, for which the “DR/DR LA” value was found to be 1.465.

Turning to B9, the “DR/DR LA” value was 1.805.

Take B10: the “DR/DR LA” value was determined as 0.794.

As to B11, the “DR/DR LA” value was 0.215.

As for B12, the “DR/DR LA” value was determined as 2.413.

For B13, the “DR/DR LA” value came out at 0.405.

Turning to B14, the “DR/DR LA” value was determined as 0.430.

For B15, the “DR/DR LA” value stood at 1.009.

For B16, the “DR/DR LA” value was determined as 1.936.

Take B17: the “DR/DR LA” value was found to be 0.884.

With B18, the “DR/DR LA” value stood at 2.339.

For B19, the “DR/DR LA” value is 1.572.

Regarding B20, the “DR/DR LA” value is on record as 1.286.

Another assay can be described thus: Probe fluorescence ratio response to oleic acid relative to ADIFAB2. The note with it: response relative to ADIFAB2. The assay is classed as binding. In short, it runs like this: as §1
Consider B1, for which the “DR/DR OA” value is on record as 1.912.

For the molecule B2, the “DR/DR OA” value is 0.081.

B3: the “DR/DR OA” value was determined as 0.869.

As for B4, the “DR/DR OA” value is reported as 1.547.

Regarding B5, the “DR/DR OA” value worked out at 1.054.

For B6, the “DR/DR OA” value turned out to be 0.408.

As to B7, the “DR/DR OA” value is listed as −0.213.

B8: the “DR/DR OA” value amounted to 1.313.

With B9, the “DR/DR OA” value amounted to 1.630.

In the case of B10, the “DR/DR OA” value turned out to be 0.448.

B11: the “DR/DR OA” value is reported as −0.024.

B12: the “DR/DR OA” value stood at 1.583.

With B13, the “DR/DR OA” value is listed as 0.227.

For the molecule B14, the “DR/DR OA” value was 0.211.

Turning to B15, the “DR/DR OA” value was 0.706.

For the molecule B16, the “DR/DR OA” value is 1.842.

Consider B17, for which the “DR/DR OA” value was determined as 0.773.

As for B18, the “DR/DR OA” value came to 2.155.

With B19, the “DR/DR OA” value is on record as 1.448.

As to B20, the “DR/DR OA” value came to 1.235.

A short description of the next assay: Probe fluorescence ratio response to palmitic acid relative to ADIFAB2. The class given is binding. The note with it: response relative to ADIFAB2. In short, it runs like this:
as §1
B1: the “DR/DR PA” value amounted to 1.416.

As to B2, the “DR/DR PA” value stood at 0.206.

As for B3, the “DR/DR PA” value was found to be 0.713.

On to B4, for which the “DR/DR PA” value came to 1.022.

As for B5, the “DR/DR PA” value was 0.870.

For B6, the “DR/DR PA” value stood at 0.406.

As to B7, the “DR/DR PA” value was 0.091.

In the case of B8, the “DR/DR PA” value is 1.039.

On to B9, for which the “DR/DR PA” value turned out to be 1.131.

For B10, the “DR/DR PA” value was determined as 0.492.

For the molecule B11, the “DR/DR PA” value is recorded as 0.145.

As for B12, the “DR/DR PA” value is 1.552.

B13: the “DR/DR PA” value turned out to be 0.342.

In the case of B14, the “DR/DR PA” value is on record as 0.223.

On to B15, for which the “DR/DR PA” value turned out to be 0.515.

As for B16, the “DR/DR PA” value came to 1.551.

Take B17: the “DR/DR PA” value came to 0.815.

For the molecule B18, the “DR/DR PA” value stood at 1.450.

Consider B19, for which the “DR/DR PA” value is 1.247.

Take B20: the “DR/DR PA” value turned out to be 0.724.

Values taken from US20060257938A1, “Method of screening for drugs that block ligand binding to a lipid binding protein” (priority 2005, published 2006).
